# Assay: soluble on expression in E. coli; label from the status in PepcDB or PDB records
row,Sequence,soluble on expression in E. coli
1,MSESTSSVGPGRPKDPAKREAILEAAKRLFLCNGYDGSSMEAIASEAGVSKLTVYSHFTDKETLFSEAVKAKCAEQLPALYFQLAEGAPLEKVLLNIARGFHRLINSHEAIALTRLMAAQAGQNPKLSELFFEAGPKQVIDEMERLLEQARRSGKLAFPDARHAAEHFFMLVKGCANYRLLIGCAEPLDEAEGERHVEEVVALFLRAFAAGG,not soluble
2,MGSDKIHHHHHHKTRTVFVCQQCGAQQSRWMGKCPECGAWDSLVEQIVTPARGTGGQRAATVGQNQPIRLRDVPLTDFQRLPVYAEEFARVLGGGLVPGSVVLIGGDPGVGKSTLLGQVAAHFAASVGPALYVSAEESAQQIRLRAERLGLTADDLFLLAETSLDLIIEHIRHLRPRLVIVDSIQTVYLPELTSAAGSVSQVREGALRLMQLAKETAIPIVLVGHVTKEGAIAGPRVLEHIVDVVLYLEGDRFHQFRLLRGGKNRFGSTNEVGVFEMTGDGLREVRNPSQVFLAERNTQSPGSTVTVTLEGTRPLLVEVQALTSHTGNAQPRRTTNGFDLNRLLMLTAVLSKRVGLPLFNQDLYVNIVGGLRIGEPAADLAVALAIASSYRNQRIASRSGLPW,not soluble
3,MEDLALRPKTLDEYIGQERLKQKLRVYLEAAKARKEPLEHLLLFGPPGLGKTTLAHVIAHELGVNLRVTSGPAIEKPGDLAAILANSLEEGDILFIDEIHRLSRQAEEHLYPAMEDFVMDIVIGQGPAARTIRLELPRFTLIGATTRPGLITAPLLSRFGIVEHLEYYTPEELAQGVMRDARLLGVRITEEAALEIGRRSRGTMRVAKRLFRRVRDFAQVAGEEVITRERALEALAALGLDELGLEKRDREILEVLILRFGGGPVGLATLATALSEDPGTLEEVHEPYLIRQGLLKRTPRGRVATELAYRHLGYPPPVGPLLEP,soluble
4,TTSLRAYRLGEHGQVLEQRALSAGIMQLPTTPRLISGQLCSDGFELAFDQACGDWLDAEPGLPVIACGMVGSAQGWREAAYRETPASVNQLSAALQTVRSQRGVTVHIIPGVLQRSTLPNVMRGEETQVLGVLAGLETQLDNQPLLIGLPGSHSKWVQVTRGRIVHFDTFMTGEVYAALCAHTILGRTMQPAEAFDDQAFDRGLSIALSDTGSAGPLSTIFSTRTLGLTGQLAASAQPDYLSGLLFGHELGAIARLHLHTHEQLPAVILIGSEALCARYSRGLTVCGFPQVTLAEQATERGLWQVAVQAGLIAR,not soluble
5,MTTMVNVDTLPEYEKSQIKRALELGTVMTVFNARKSTPERRTVQMIMETRQVAWSKTADKIEGFLDIMEIKEIRPGKNSKDFERAKAVRHKAECCFTILYGTQFVLSTLSLATDSKEDAVKWLSGLKILHQEAMSASTPTMIESWLRKQIYSVDQTRRNSISLRELKTILPLVNFKVSGIKFLKDKLVEIGAQKDELSFEQFHLFYKKLMFDQQKSILDEFKKDSSVFILGNTDRPDASAVYLQDFQRFLLHEQQELWAQDLNKVRERMTKFIDDTMRETAEPFLFVDEFLTYLFSRENSIWDEKYDAVDMQDMNNPLSHYWISSSHNTYLTGDQLRSESSTEAYIRCLRAGCRCIELDCWDGPDGKPIIYHGWTRTTKIKFDDVVQAIRDHAFVTSSFPVILSIEEHCSVEQQRHMAKVFKEVLGDMLLTKPTEASADQLPSPSQLREKIIIKHKKLGPKGDVDVNVEDKKDEHKPQGELYMWDSIDQKWTRHYCAIADAKLSFGDDIEQAVEEEPVQDTPPTELHFGEKWFHKKVESRTSAEKLLQEYCAETGAKDGTFLVRESETFPNDYTLSFWRSGRVQHCRIRSTMENGVMKYYLTDNLTFNSIYALIQHYREAHLRCAEFELRLTDPVPNPNPHESKPWYYDSLSRGEAEDMLMRIPRDGAFLIRKREGTNSYAITFRARGKVKHCRINRDGRHFVLGTSAYFESLVELVSYYEKHALYRKMRLRYPVTPELLERYNMERDINSLYDVSRMYVDPSEINPSMPQRTVKALYDYKAKRSDELTFCRGALIHNVSKEPGGWWKGDYGTRIQQYFPSNYVEDISAGDAEEMEKQIIEDNPLGSLCKGILDLNTYNVVKAPQGKNQKAFVFILEPKKQGDPPVEFATDRVEELFEWFQSIREITWKMDTKENNMKYWERNQSIAIELSDLVVYCKPTSKTKDHLENPDFREIRSFVETKADSIVRQKPVDLLRYNQKGLTRVYPKGQRVDSSNYDPFRLWLCGSQMVALNFQTPDKYMQMNHALFSLNGRTGYVLQPESMRSEKYDPMPLESQRKILMTLTVKVLGARHLPKLGRSIACPFVEVEICGAEYDSNKFKTTVVNDNGLSPVWAPTQEKVTFEIYDPNLAFLRFVVYEEDMFSDPNFLAHATYPIKGIKSGFRSVPLKNGYSEDIELASLLVFCEMRPVLESEEELYSSCRQLRRRQEELNNQLFLYDTHQNLRGANRDALVKEFNVNENQLQLYQEKCNRRLREKRVSNSRFYS,soluble
6,MGSDKIHHHHHHMFLVISVVGSSNIDIVLKVDHFTKPGETQKAIEMNVFPGGKGANQAVTVAKIGEKGCRFVTCIGNDDYSDLLIENYEKLGITGYIRVSLPTGRAFIEVDKTGQNRIIIFPGANAELKKELIDWNTLSESDILLLQNEIPFETTLECAKRFNGIVIFDPAPAQGINEEIFQYLDYLTPNEKEIEALSKDFFGEFLTVEKAAEKFLELGVKNVIVKLGDKGVLLVNKNEKKHFPTFKVKAVDTTAAGDVFNGAFAVALSEGKNPEEAVIFGTAAAAISVTRLGAQSSIPAREEVEAFLKNL,soluble
7,MNIYAFDFDEIESQEDFYRDFSQTFGLAKDKVRDLDSLWDVLMNDVLPLPLEIEFVHLGEKTRRRFGALILLFDEAEEELEGHLRFNVRH,not soluble
8,MGSDKIHHHHHHMKLHQLRALVAIHNAGSILEASKLMHITQPALSRSIKELEREVGFTLLQRSHKGMALTEEGKRVIRHANLVVESIRRLQIEAASIQDAALGAVSIGVTSLTAMLDGVDESILAFRRKYPRVKITITDLRPSQILQRLRDGSLDFAITSQQPLSRLSLDWEALGSIKGRVICHASNRQKFSQSLRTLQYAPWISLDELSDQASQFHQLFEANGLRVPQNTVECTSVMMALKLLKNTESLMTISELAVDQGFTYGIDCEFVAMAVQELIPDYPINLVCIDRHSLTAPAQELFHSLRGQVLKQTRPVGSEVVVHA,not soluble
9,GPGSMFGANAPSTGIGAPAAGFGKPPATFGTSALSGANTTATAGRGFGAATGASATPGFGIAFAAPSTSTAAAGGASGFGSSAASGTTGFGGAAGFGSSAASGTTGFGGAAGFGSSAASGTTGFGAGGGFGAKPGSGFGVSATSGFGAPATGTTGFGAGATAPAAIGGWGAQQPNPAMQPQAPQQPQPTVTLQDFARQSALASYLVKLDESYNALHPNCRFRAFVYNSCGAGQVMDAIQKERYTAHLNGGGCSEEAYMQALHQNPDPGRLYPSPIHFSQELLRRTEKQREAVKVLQKKVTELLQDIDTVAAMDAANVRRQREVEQEEVMLQHRWYSLLCKMELLRRHGSSCGEEGLLNSRVEQLRKLLRAPGRFSQLLSELRPFLTEEASRVAMITQQSANKTEARQQQQQCRFVGSAPAAWRNAGSQPLLRTEVDPYIMKDWVQFAKQMQDGIETLNELLKTDLKEMQAIRSRVEAS,not soluble
10,MSLEALLSEDVKIIASALKAAIDKDRKSTSKREAETGIRYYNHENDIMNNRIFYVDDEGVLREDKYASNVRIPHGFFPEIVDQKTQYLLSNPVEYETENEELKEYLAEYYNSEFQVVLQELVEGSSQKGFEYVYARTNAEDRLCFQVADSLNVFGVYNEYNELQRICRHYITEIEKDGETVDIHHAEVWTDQNVYFFVAEDNKDYELDEAEPINPRPHVLAVDSDNESLLQRSYGQIPFYRLSNNKQETTDLKSIKALIDDYDLMNCFLSNNLQDFAEAIYVVSGFQGDDLSKLRQNVKSKKVVGTGSDGGLDVKTVTIPTEGRKTKMEIDKENIYKFGMAFDSTQVGDGNITNIVIKARYTLLNMKANKTEARLRALLEWMNKLVIDDINRRYTKAFDPTEVSFTFTREVMVNETDIVNNEKTEAETRKIILESILQVAPRLDDDNVLRLICEQFDLDWEDVKEALEEAEYTQGLTDNTDEEETAVTPNVPTQQMAEGATGSTESQLPGEGHHHHHH,not soluble
11,MLTLITFPKAFGLYSASPFCVKAAYLLTLAGEPWQRQDQTDPRRMPHGKLPVLRTPERLVPDSDGIRAWLESRGAEFDRGLTDAQRASARALIHMAEDHFYPYLVLDRWGNDAVWAIIRDTFFGEIPRLLRKPVTNRIRAQVLRGLDFQGMARFSEAERRDRVERSFEAVTALLWQKPFLFGDAPTGADLSVAPMLAAMRATPVATPLQRRVAGDRVLSDYIDRMDATLPLT,not soluble

# — the DeepSol protein solubility set
